# Values quoted from earlier work, collected in patent US20120122716A1, “CELL LINE DERIVED FROM THE EPITHELIAL LINING OF THE HUMAN ENDOLYMPHATIC SAC IN THE INNER EAR” (priority 2010, published 2012).
# Test system: beta defensin 2
# Settings: HMEEC-1 cells; via Src-dependent Raf-MEK1/2-ERK signaling pathway
molecule,measurement,value
"IL-1α: interleukin 1 alpha, cytokine (protein, UniProt P01583 113-271, looked up) Interleukin-1 alpha: SAPFSFLSNVKYNFMRIIKYEFILNDALNQSIIRANDQYLTAAALHNLDEAVKFDMGAYKSSKDDAKITVILRISKTQLYVTAQDEDQPVLLKEMPEIPKTITGSETNLLFFWETHGTKNYFTSVAHPNLFIATKQDYWVCLAGGPPSITDFQILENQA",beta defensin 2 expression,up-regulate
